# Test results as given in the supplement of paper PMC10724198.
# ± gives the standard deviation of the averaged measurements.
# Columns and labels:
# [1] = test system: Saccharomyces cerevisiae; assay: protein stability index of tFT-peptide fusion (C-terminal peptide) (PSI (0-1 scale)); higher = more stable (slower turnover); conditions: genetic background: wild type; temperature: 30 C
# [2] = test system: Saccharomyces cerevisiae; assay: as above
# Protocol: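 MPS profiling in S. cerevisiae of the tFT-X12 degron library: putative degron peptides plus stable controls, 12 aa, fused to the C-terminus of a sfGFP-mCherry timer. Cells are FACS-sorted into 8 mCherry/sfGFP bins and deep-sequenced. PSI runs from 0 (unstable) to 1 (stable). Backgrounds are wild type, das1Δ and doa10Δ at 30 °C, and wild type, das1Δ, cdc34-1 and cdc53-1 at 37 °C; 2-3 technical replicates each.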
# [3] = genetic background: cdc34-1, temperature: 37 C
# [4] = genetic background: cdc53-1, temperature: 37 C
# [5] = genetic background: das1 deletion, temperature: 30 C
# [6] = genetic background: das1 deletion, temperature: 37 C
# [7] = genetic background: doa10 deletion, temperature: 30 C
# [8] = genetic background: wild type, temperature: 30 C
# [9] = genetic background: wild type, temperature: 37 C
# 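Note: PSI is a weighted mean of sequencing reads over stability bins, variants kept only with over 10 reads, mCherry proximal and sfGFP distal, peptide attached via GGGS linker.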
Sequence,protein stability index [1],"protein stability index [2, 3]","protein stability index [2, 4]","protein stability index [2, 5]","protein stability index [2, 6]","protein stability index [2, 7]","protein stability index [2, 8]","protein stability index [2, 9]"
LPPSPPCQSPAL,0.743 ± 0.018,0.667 ± 0.021,0.716 ± 0.012,0.672 ± 0.015,0.728 ± 0.012,0.681 ± 0.03,0.667 ± 0.019,0.685 ± 0.013
LPPYPPPVPILI,0.493 ± 0.017,0.449 ± 0.0069,0.455 ± 0.021,0.362 ± 0.031,0.519 ± 0.0006,0.322 ± 0.0038,0.39 ± 0.026,0.489 ± 0.0053
LPSLRPPPCIRA,0.48 ± 0.018,0.4441 ± 0.002,0.473 ± 0.013,0.36 ± 0.038,0.54 ± 0.02,0.332 ± 0.041,0.345 ± 0.015,0.513 ± 0.014
LQYSKALAVICG,0.374 ± 0.05,0.218 ± 0.034,0.264 ± 0.027,0.235 ± 0.041,0.367 ± 0.01,0.19 ± 0.017,0.221 ± 0.033,0.317 ± 0.023
LRALGPRIYRIS,0.317 ± 0.035,0.661 ± 0.076,0.747 ± 0.025,0.645 ± 0.015,0.747 ± 0.016,0.194 ± 0.0089,0.199 ± 0.012,0.417 ± 0.016
LRLFIFLLFSVF,0.198 ± 0.013,0.246 ± 0.025,0.282 ± 0.023,0.268 ± 0.034,0.39 ± 0.012,0.19 ± 0.0081,0.175 ± 0.015,0.249 ± 0.013
LSFFFWFIFSLC,0.376 ± 0.019,0.475 ± 0.013,0.492 ± 0.053,0.429 ± 0.028,0.5328 ± 0.0043,0.344 ± 0.035,0.325 ± 0.0039,0.443 ± 0.027
LSLFCFFLLVLF,0.2279 ± 0.0013,0.203 ± 0.025,0.224 ± 0.021,0.272 ± 0.047,0.332 ± 0.011,0.305 ± 0.0094,0.206 ± 0.03,0.288 ± 0.0084
LSPLPSPLILVV,0.284 ± 0.014,0.116 ± 0.08,0.16 ± 0.021,0.201 ± 0.0086,0.228 ± 0.0065,0.14761 ± 5.3e-05,0.191 ± 0.034,0.182 ± 0.022
LSRELRFVGFYH,0.318 ± 0.066,0.637 ± 0.07,0.751 ± 0.019,0.656 ± 0.017,0.717 ± 0.025,0.222 ± 0.004,0.229 ± 0.054,0.517 ± 0.043
LSRLWVVGWVVA,0.295 ± 0.036,0.453 ± 0.019,0.472 ± 0.028,0.345 ± 0.032,0.529 ± 0.0071,0.191 ± 0.0034,0.234 ± 0.025,0.399 ± 0.013
LSSIIRFLIFCL,0.404 ± 0.013,0.496 ± 0.024,0.532 ± 0.015,0.495 ± 0.024,0.5964 ± 0.0026,0.398 ± 0.031,0.366 ± 0.0049,0.469 ± 0.0062
LTIYPLTYCFVS,0.502 ± 0.035,0.629 ± 0.051,0.704 ± 0.046,0.562 ± 0.025,0.657 ± 0.058,0.45336 ± 0.00045,0.44 ± 0.023,0.568 ± 0.025
LVDSRIVWLFVS,0.0955 ± 0.039,0.325 ± 0.095,0.584 ± 0.034,0.439 ± 0.026,0.632 ± 0.024,0.0761 ± 0.016,0.0713 ± 0.017,0.0698 ± 0.021
LVFFAYLIRGAL,0.108 ± 0.036,0.344 ± 0.0086,0.462 ± 0.011,0.364 ± 0.031,0.518 ± 0.015,0.0526 ± 0.0068,0.0682 ± 0.0051,0.0558 ± 0.0015
LVGLESCGERAG,0.69 ± 0.035,0.655 ± 0.00071,0.7436 ± 0.0018,0.644 ± 0.025,0.7308 ± 0.0011,0.643 ± 0.027,0.654 ± 0.0009,0.72 ± 0.024
LVHLVLYVAVFC,0.283 ± 0.074,0.317 ± 0.043,0.4112 ± 0.0015,0.292 ± 0.048,0.409 ± 0.0046,0.2877 ± 0.0014,0.309 ± 0.013,0.398 ± 0.0049
LVLLRLSSLTIF,0.404 ± 0.0068,0.627 ± 0.01,0.699 ± 0.0095,0.561 ± 0.018,0.707 ± 0.012,0.269 ± 0.011,0.314 ± 0.011,0.549 ± 0.034
LVVFLRFFLRVL,0.199 ± 0.0035,0.105 ± 0.0097,0.106 ± 0.002,0.166 ± 0.028,0.265 ± 0.039,0.175 ± 0.003,0.114 ± 0.033,0.158 ± 0.016
LVVGCFLTFCFG,0.315 ± 0.028,0.241 ± 0.013,0.366 ± 0.012,0.26 ± 0.028,0.441 ± 0.0089,0.212 ± 0.0024,0.236 ± 0.038,0.402 ± 0.0085

Sequence,protein stability index [1],"protein stability index [2, 3]","protein stability index [2, 4]","protein stability index [2, 5]","protein stability index [2, 6]","protein stability index [2, 7]","protein stability index [2, 8]","protein stability index [2, 9]"
LWFGAWWLGAVG,0.457 ± 0.0053,0.318 ± 0.031,0.361 ± 0.0043,0.411 ± 0.0063,0.336 ± 0.0087,0.4166 ± 0.0011,0.421 ± 0.0065,0.32 ± 0.013
LWGVGRQRNIAS,0.41 ± 0.013,0.684 ± 0.033,0.758 ± 0.015,0.655 ± 0.038,0.769 ± 0.021,0.291 ± 0.036,0.304 ± 0.018,0.582 ± 0.021
LWRRSLLLLRCC,0.0946 ± 0.013,0.0526 ± 0.0063,0.0759 ± 0.04,0.173 ± 0.029,0.244 ± 0.015,0.0637 ± 0.013,0.0611 ± 0.0038,0.0618 ± 0.0063
LWYVQILNIVLN,0.328 ± 0.033,0.31 ± 0.018,0.388 ± 0.019,0.293 ± 0.048,0.4552 ± 0.0029,0.233 ± 0.024,0.249 ± 0.029,0.409 ± 0.013
LYLEAYFCIFHF,0.36 ± 0.024,0.356 ± 0.052,0.449 ± 0.0069,0.358 ± 0.025,0.422 ± 0.013,0.334 ± 0.017,0.327 ± 0.004,0.401 ± 0.015
MALAVRVVVCGA,0.184 ± 0.043,0.0333 ± 0.0083,0.0649 ± 0.022,0.125 ± 0.025,0.131 ± 0.0024,0.0868 ± 0.014,0.107 ± 0.02,0.107 ± 0.021
MAMMQTILIIIH,0.171 ± 0.0028,0.0295 ± 0.01,0.158 ± 0.14,0.117 ± 0.044,0.186 ± 0.014,0.0894 ± 0.029,0.119 ± 0.026,0.173 ± 0.0081
MDLVSEYKIKVN,0.31 ± 0.004,0.62 ± 0.026,0.712 ± 0.053,0.56 ± 0.034,0.704 ± 0.02,0.176 ± 0.006,0.226 ± 0.038,0.473 ± 0.0088
MFRSEVSWKLCC,0.285 ± 0.054,0.619 ± 0.071,0.727 ± 0.015,0.624 ± 0.019,0.753 ± 0.011,0.1344 ± 0.00047,0.174 ± 0.025,0.409 ± 0.025
MSCILFCCLVPF,0.4748 ± 0.0035,0.545 ± 0.039,0.57 ± 0.034,0.423 ± 0.023,0.568 ± 0.014,0.381 ± 0.012,0.402 ± 0.029,0.549 ± 0.017
NASWAFLCYFCV,0.481 ± 0.028,0.646 ± 0.03,0.69 ± 0.013,0.538 ± 0.018,0.68493 ± 0.0006,0.347 ± 0.018,0.374 ± 0.022,0.557 ± 0.04
NMRYRATIEACA,0.356 ± 0.0097,0.258 ± 0.043,0.319 ± 0.0071,0.222 ± 0.029,0.397 ± 0.005,0.174 ± 0.021,0.226 ± 0.029,0.38 ± 0.023
NTYKICVVSVTS,0.413 ± 0.018,0.449 ± 0.014,0.552 ± 0.021,0.355 ± 0.047,0.587 ± 0.0069,0.267 ± 0.019,0.299 ± 0.035,0.578 ± 0.018
NYVFRIIIVLDA,0.444 ± 0.0058,0.269 ± 0.01,0.408 ± 0.11,0.267 ± 0.035,0.429 ± 0.042,0.227 ± 0.059,0.245 ± 0.011,0.349 ± 0.031
PALYLSLWFLFP,0.512 ± 0.045,0.534 ± 0.056,0.606 ± 0.023,0.445 ± 0.043,0.603 ± 0.023,0.452 ± 0.013,0.456 ± 0.037,0.5761 ± 0.0011
PAVRRLTGLMLM,0.413 ± 0.011,0.6812 ± 0.0047,0.7493 ± 0.0057,0.612 ± 0.014,0.737 ± 0.024,0.276 ± 0.011,0.321 ± 0.0051,0.566 ± 0.022
PCNVLWYSLFLF,0.271 ± 0.0091,0.487 ± 0.015,0.597 ± 0.025,0.452 ± 0.027,0.597 ± 0.018,0.175 ± 0.018,0.19 ± 0.017,0.34 ± 0.0062
PFAGRLWVTSSF,0.752 ± 0.035,0.707 ± 0.052,0.7726 ± 0.005,0.671 ± 0.011,0.7908 ± 0.0063,0.685 ± 0.021,0.674 ± 0.022,0.7558 ± 0.0072
PFYQSGGLVVVV,0.21 ± 0.039,0.58 ± 0.024,0.63 ± 0.017,0.469 ± 0.034,0.62927 ± 0.00041,0.437 ± 0.021,0.464 ± 0.023,0.583 ± 0.029
